Measurements taken from publication PMC4990258, “Mutations at the Subunit Interface of Yeast Proliferating Cell Nuclear Antigen Reveal a Versatile Regulatory Domain” (PLoS ONE, 2016).

Target: T1, GST-Rev1 (full-length Rev1) (S. cerevisiae, UniProt P12689 1-985)
T1 construct: Rev1, yeast, full-length; Held on the beads by GST during the incubation; Rev1 was cut from GST by PreScission protease only at the elution step; not shown: GST, N-terminal, kept
T1 sequence (looked up): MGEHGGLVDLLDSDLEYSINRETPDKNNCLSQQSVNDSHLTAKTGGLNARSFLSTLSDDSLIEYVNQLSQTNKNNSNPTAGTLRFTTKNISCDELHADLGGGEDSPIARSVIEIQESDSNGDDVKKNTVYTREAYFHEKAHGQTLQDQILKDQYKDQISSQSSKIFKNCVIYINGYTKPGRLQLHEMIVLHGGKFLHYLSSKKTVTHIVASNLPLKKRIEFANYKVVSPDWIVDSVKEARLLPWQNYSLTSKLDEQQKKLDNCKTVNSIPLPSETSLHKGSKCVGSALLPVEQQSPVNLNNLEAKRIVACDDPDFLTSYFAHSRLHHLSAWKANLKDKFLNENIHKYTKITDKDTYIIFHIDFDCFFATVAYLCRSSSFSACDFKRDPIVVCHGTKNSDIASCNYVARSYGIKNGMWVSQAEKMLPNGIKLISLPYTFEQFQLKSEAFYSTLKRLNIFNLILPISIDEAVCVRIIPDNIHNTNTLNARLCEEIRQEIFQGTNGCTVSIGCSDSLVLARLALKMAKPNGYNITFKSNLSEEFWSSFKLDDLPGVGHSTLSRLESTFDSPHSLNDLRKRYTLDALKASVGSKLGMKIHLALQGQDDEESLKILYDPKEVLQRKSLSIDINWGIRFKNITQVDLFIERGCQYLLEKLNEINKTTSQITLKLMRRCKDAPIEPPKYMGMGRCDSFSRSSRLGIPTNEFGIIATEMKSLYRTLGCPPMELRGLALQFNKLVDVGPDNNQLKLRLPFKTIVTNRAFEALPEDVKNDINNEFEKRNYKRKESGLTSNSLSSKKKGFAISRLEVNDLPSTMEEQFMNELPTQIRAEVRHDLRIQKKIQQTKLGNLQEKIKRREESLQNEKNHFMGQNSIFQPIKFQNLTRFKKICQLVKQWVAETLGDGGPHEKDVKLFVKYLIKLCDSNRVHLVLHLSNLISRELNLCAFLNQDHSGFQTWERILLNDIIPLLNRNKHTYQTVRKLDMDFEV
Test: pull-down; GST-Rev1 (5 μg) immobilised on glutathione-Sepharose beads, incubated with purified PCNA (3 μg) overnight on ice; 50 mM Tris/HCl pH 7.5, 100 mM NaCl, 1 mM EDTA, 1 mM DTT, 10% glycerol, 0.01% Nonidet P-40; five washes; eluted by PreScission protease cleavage of Rev1 from GST; SDS-PAGE
Conditions: both partners purified

binding result: binds
B1: wild type PCNA (proliferating cell nuclear antigen, Saccharomyces cerevisiae) (natural protein, S. cerevisiae)
chain: MLEAKFEEASLFKRIIDGFKDCVQLVNFQCKEDGIIAQAVDDSRVLLVSLEIGVEAFQEYRCDHPVTLGMDLTSLSKILRCGNNTDTLTLIADNTPDSIILLFEDTKKDRIAEYSLKLMDIDADFLKIEELQYDSTLSLPSSEFSKIVRDLSQLSDSINIMITKETIKFVADGDIGSGSVIIKPFVDMEHPETSIKLEMDQPVDLTFGAKYLLDIIKGSSLSDRVGIRLSSEAPALFQFDLKSGFLQFFLAPKFNDEE
notes: PCNA (POL30 gene product), Saccharomyces cerevisiae, wild type; the oligomeric state of the purified protein was not measured here; also called wt PCNA; yeast PCNA; source: yeast BJ5464, overexpressed as GST fusion, purified on glutathione-Sepharose 4B, GST removed by PreScission protease; not shown: GST, N-terminal, cleaved
